Consider one molecule from patent publication US20070141625A1 (published 2007).

By Ki is commonly meant the dissociation constant of the complex between target and ligand, obtained from inhibition or displacement.

The target in the experiment is T1, protein C (PC) (UniProt P04070 43-461).
T1 construct: Commercial PC
The experiment is described as follows: inhibition by rhsEPCR 2 µM of PC activation by thrombin on EA.hy926 endothelial cells; Ki derived from the shift of Km. As for the experimental part:
Proc Natl Acad Sci USA. 1996; 93:10212-6). 5×10⁴ cells/well were incubated in a 96-well plate with 0.02 U/ml of thrombin (0.17 nM) (ERL, Swansea, United Kingdom) and growing concentrations of PC (Baxter, Deerfield, Ill., USA) between 50 and 1000 nM in Tris 20 mM buffer, pH 7.4, supplemented with NaCl 150 mM, CaCl₂ 5 mM, MgCl₂ 0.6 mM, 1% BSA, 0.001% Tween-20 and 0.02% NaN₃. After 45 minutes at room temperature, lepirudin was added (Schering A G, Berlin, Germany) at an end concentration of 0.2 μmol/L, to inhibit thrombin; 3-4 minutes later, chromogenic substrate S-2366 was added (Chromogenix, Milan, Italy) at an end concentration of 0.4 mM with the purpose of monitoring its proteolysis by APC. The increase in absorbance at 405 nm was recorded kinetically with a microplate reader (iEMS REader, Labsystems, Finland). Curve data fitting to the Michaelis-Menten equation was carried out using the Enzfitter program (Biosoft, Cambridge, United Kingdom), which calculated the Km of PC activation under those conditions. Where necessary, 45 μg/ml of purified anti-EPCR autoantibodies from patients (see below) were added simultaneously with the thrombin and PC. Thus, the effect of the anti-EPCR autoantibodies upon PC activation could be analyzed. […]

T1 sequence (P04070 43-461): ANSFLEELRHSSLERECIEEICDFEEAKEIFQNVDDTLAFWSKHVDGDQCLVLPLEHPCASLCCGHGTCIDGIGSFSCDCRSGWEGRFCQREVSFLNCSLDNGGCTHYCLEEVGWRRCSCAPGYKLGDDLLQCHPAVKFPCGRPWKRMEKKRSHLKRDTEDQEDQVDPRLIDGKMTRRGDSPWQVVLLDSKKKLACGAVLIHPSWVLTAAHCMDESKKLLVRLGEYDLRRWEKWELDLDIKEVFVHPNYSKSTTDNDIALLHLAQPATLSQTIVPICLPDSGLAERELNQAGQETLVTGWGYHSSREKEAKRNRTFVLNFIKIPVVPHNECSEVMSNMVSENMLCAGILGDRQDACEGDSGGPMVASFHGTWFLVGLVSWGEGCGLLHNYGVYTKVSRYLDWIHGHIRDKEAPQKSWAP

B1: recombinant human soluble EPCR (rhsEPCR) (receptor)
chain: SISQDASDGLQRLHMLQISYFRDPYHVWYQGNASLGGHLTHVLEGPDTNTTIIQLQPLQEPESWARTQSGLQSYLLQFHGLVRLVHQERTLAFPLTIRCFLGCELPPEGSRAHVFFEVAVNGSSFVSFRPERALWQADTQVTSGVVTFTLQQLNAYNRTRYELREFLEDTCVQYVQKHISAENTKGSQTSRSYTSAAASFLEQKLISEEDLNSAVDHHHHHH
notes: also called recombinant sEPCR; human recombinant EPCR in soluble form
Regarding B1, the Ki is approximately 70 nM.
